Assay results reported in US20070065439A1 (Amgen, published 2007).
Changes are numbered by the printed parent chain.

B1: 9.2.1 (antibody, human IgG4, V domains shown)
VH: QVQLVESGGGVVQPGRSLRLSCAASGFTFNNYGMHWVRQAPGKGLECVAVIWYDGGNKYYADSVKGRFAISRDNSKNTLYLQMNSLRAEDTAVYYCTAVTTLYYYYGMDVWGQGTTVTVS
VL: QSALTQPASVSGSPGQSITISCTGTSSDVGGYNYVSWYQQHPGKAPKLMIYEVSNRPSGVSNRFSGSKSGNTASLTISGLQAEDEADYYCSSYTSSSILVFGGGTKLTVL
notes: lambda
B2: 9.19.1 (antibody, human IgG4, V domains shown)
VH: B1 VH with T101K, Y103N, G114R
VL: B1 VL with L48F
notes: lambda; also called mAb 9.19.1
B3: 6.33.1 (antibody, human IgG4, V domains shown)
VH: QVQLVESGGGVVQPGRSLRLSCAASGFTFSVYGMHWVRQAPGKGLEWVAVIWYDGSNKYYADSVKGRFTISRDNSKNTLYLQMNSLRAEDTAVYYCAREKSSGWFFDYWGQGTLVTVSS
VL: B1 VL with G31S, Y34L, N55K, V60I, S91C, T94A, S95G, S96N, L99W
notes: lambda; also called mAb 6.33.1
B4: 9.11.1 (antibody, human IgG4, V domains shown)
VH: B3 VH with S56N, A61V, M83L, K100R, G103S, F105Y
VL: B1 VL with P14S, G31S, Y34L, N55K, S91C, T94A, S95G, S96N, I98N, L99W
notes: lambda; also called 9.11.3
B5: 6.26.1 (antibody, human IgG4, V domains shown)
VH: QLQLQESGPGLVKPSETLSLTCTVSGGSISRSSYYWGWIRQPPGKGLEWMGNIYYSGSTHYNPSLKSRVTISVDTSKNQFSLKLSSVTAADTAVFYCAKGREYISSSGYGMDVWGQGTTVTVS
VL: SYELTQPPSVSVSPGQTASITCSGDKLGNKYVCWYQQKPGQSPVLVIFQDSRRPSGIPERFSGSNSGNTATLTISGTQAMDEADYYCQAWDTSTVIFGGGTKLTVL
notes: lambda; also called 6.26.4
B6: 8.18.1 (antibody, human IgG4, V domains shown)
VH: QVQLQESGPGLVKPSETLSLTCTVSGGSVSSGGYYWSWIRQPPGKGLEWIGYFYYSGSPNYNPSLKRRIAISVDTSKNQFSLRLSSVTAADTAVYYCARDPMHYYGMDVWGQGTTVTVSS
VL: SSELTQPPSVSVFPGQTANITCSGDKLGDKFACWYQQKPGQSPVLVIYRDNKRPSGIPERFSGSNSGNTATLTISGTQAMDEADYYCQAWDSSTYVVFGGGTKLTVL
notes: lambda; also called mAb 8.18.1
B7: 5.36.1 (antibody, human IgG4, V domains shown)
VH: QVQLQQSGPGLVKPSQTLSLTCAISGDSVSSNSAAWNWIRQSPSRGLEWLGRTYYRSKWYNDYAVSVKSRITINPDTSKNQFSLQLNSVTPEDTAVYYCAREEQQLVRYYYYYGMDVWGQGTTVTVS
VL: DIVMTQTPLSLSVTPGQPASISCKSSQSLLHSDGRTYLYWYLQRPGQPPQLLIYEASYRFSGVPDRFSGSGSGTDFTLKISRVEAEDVGIYYCMQSIQLPRTFGQGTRLEIK
notes: kappa
B8: 8.6.1 (antibody, human IgG4, V domains shown)
VH: B6 VH with I39V, Y52C, F53I, Y55F, G57E, P59T, R67S, I69V, A70T, R83K
VL: B6 VL with S2F, F13S, N19S, R49Q, N51T, F61I
notes: lambda; also called 8.6.3
B9: 9.26.1 (antibody, human IgG4, V domains shown)
VH: B1 VH with T101K, Y103N
VL: B1 VL
notes: lambda; also called 9.26.3
B10: 9.31.1 (antibody, human IgG4, V domains shown)
VH: QVQLVESGGGLVKPGGSLRLSCAASGFTFSDYYMSWIRQAPGKGLEWVSYIRSSGSTIYYADSVKGRFTISRDNAKNSLYLQMNSLRAEDTAVYYCARTPYSGRYHWYFDLWGRGTLVTVS
VL: SYELTQPPSVSVSPGQTARITCSGDALPIKYAYWYQHKSGQAPVLVIYEDSKRPSGIPERFSGSSSGTMATLTISGAQVEDEADYYCYSTDSSGNHRVFGGGTKLTVL
notes: lambda; also called 9.31.3
B11: 4.20.1 (antibody, human IgG4, V domains shown)
VH: QVQLVESGGGVVQPGRSLRLSCAASGFTFSNYGMNWVRQAPGKGLEWVAVIWYDGNNKSEADSVKGRFTISRDNSKNTLYLQMNSLRAEDTAVYYCARDSRSGPFDYWGQGTLVTVSS
VL: EIVLTQSPDFQSVTPKEKVTITCRASQSIGSSLHWYQQKPDQSPKLLIKFASQSFSGVPSRISGSGSGTDFTLTINSLEAEDAATYYCHQSSSLPFTFGPGTKVDIK
notes: kappa; also called 4.20.2
B12: 8.50.1 (antibody, human IgG4, V domains shown)
VH: QVQLQESGPGLVKPSETLSLTCTVSGGSISSDYWSWIRQPAGKGLEWIGRFYNSGRTNYRPSLKSRITMSVDTSKNQFSLKLSSVTAADTAVYYCARDMYSGRGNWYFDLWGRGTLVTVS
VL: B10 VL with I29K, H37Q, G94D
notes: lambda

molecular target: T1, Recombinant human IL-1beta (rhIL-1b) (human, UniProt P01584 117-269); assay: Biacore, Medium Resolution; IL-1β in solution; medium-resolution Biacore
T1 construct: R&D Systems Cat. No. 201-LB/CF; also called IL-1β; human IL-1β

Row | Binder | Kd [pM] | koff [s⁻¹] | kon [M⁻¹ s⁻¹]
1 | B1 | 290 | 0.00035 | 1.2e+06
2 | B2 | 63 | 4e-05 | 640000
3 | B3 | 140 | 0.00014 | 970000
4 | B4 | 140 | 0.00023 | 1.6e+06
5 | B5 | 200 | 0.00038 | 1.9e+06
6 | B6 | 450 | 0.00022 | 490000
7 | B7 | 580 | 0.00058 | 1e+06
8 | B8 | 820 | – | –

molecular target: T1, Recombinant human IL-1beta (rhIL-1b); assay: Biacore, Low Resolution screen

Row | Binder | Kd [pM]
9 | B1 | 747
10 | B3 | 320
11 | B4 | 290
12 | B5 | 478
13 | B6 | 629
14 | B7 | 712
15 | B8 | 1230

molecular target: T1, Recombinant human IL-1beta (rhIL-1b); assay: Biacore high-res, mAb amine-coupled, 23C

Row | Binder | Kd [pM] | koff [s⁻¹] | kon [M⁻¹ s⁻¹]
16 | B2 | 262 | 0.00019 | 727000
17 | B3 | 236 | 0.000259 | 1.1e+06
18 | B6 | 388 | 0.000188 | 485000

molecular target: T1, Recombinant human IL-1beta (rhIL-1b); assay: Biacore low-res, mAb captured, 25C; IL-1β in solution (118 nM) over captured mAb; low-resolution Biacore, 25 C

Row | Binder | Kd [pM] | koff [s⁻¹] | kon [M⁻¹ s⁻¹]
19 | B9 | 854 | 0.00035 | 410000
20 | B1 | 747 | 0.00074 | 990000
21 | B2 | 268 | 0.00015 | 560000
22 | B3 | 320 | 0.00016 | 500000
23 | B4 | 290 | 0.0002 | 690000
24 | B5 | 478 | 0.00044 | 920000
25 | B6 | 629 | 0.00022 | 350000
26 | B7 | 712 | 0.00042 | 590000
27 | B8 | 1230 | – | –
28 | B10 | 5760 | 0.0038 | 660000
29 | B11 | 5000 | – | –
30 | B12 | 9000 | 0.027 | 3e+06

molecular target: T2, IL-1β R11A mutant (human, UniProt P01584 117-269); assay: binding to site-directed IL-1β mutant; X = abrogation of binding
T2 construct: site-directed mutant

Row | Binder | binding result
31 | B1 | no binding
32 | B3 | no binding
33 | B4 | no binding
34 | B5 | no binding
35 | B6 | no binding
36 | B7 | no binding
37 | B10 | no binding
38 | B11 | no binding
39 | B12 | no binding

molecular target: T3, IL-1β R4A mutant (human, UniProt P01584 117-269); assay: as above
T3 construct: site-directed mutant

Row | Binder | binding result
40 | B6 | no binding
41 | B7 | no binding
42 | B11 | no binding

molecular target: T1, Recombinant human IL-1beta (rhIL-1b); assay: cell-based or functional assay

Row | Binder | % IL-6 production, supernatant 1:5 dilut. [%] | % IL-6 production, supernatant 1:10 dilut. [%] | % IL-6 production, supernatant 1:20 dilut. [%]
43 | B9 | 12 | 27 | 27
44 | B1 | 4 | 8 | 16
45 | B2 | 5 | 10 | 15
46 | B3 | 13 | 22 | 22
47 | B4 | 4 | 3 | 10
48 | B5 | 9 | 8 | 22
49 | B6 | 2 | 3 | 9
50 | B7 | 6 | 8 | 18
51 | B8 | 6 | 8 | 23
52 | B10 | 6 | 23 | 13

molecular target: T1, Recombinant human IL-1beta (rhIL-1b); assay: cell-based or functional assay; remark: another data set of the same source

Row | Binder | EC50, inhibition of IL-1β-induced IL-6 production in MRC-5 cells [pM]
53 | B9 | 5680
54 | B1 | 5470
55 | B2 | 2910
56 | B3 | 1060
57 | B4 | 2670
58 | B5 | 591
59 | B6 | 536
60 | B7 | 3150
61 | B8 | 1590
62 | B10 | 14300

molecular target: T1, Recombinant human IL-1beta (rhIL-1b); assay: cell-based or functional assay; remark: another data set of the same source

Row | Binder | EC50, inhibition of IL-1β-induced IL-8 production in human whole blood [pM]
63 | B6 | 2290
